Measured values: PMC4021819, “LIM homeodomain transcription factor Isl1 directs normal pyloric development by targeting Gata3”

T1: Isl1 C-terminal fragment (LIM domains removed) (UniProt P61372 134-349)
T1 sequence: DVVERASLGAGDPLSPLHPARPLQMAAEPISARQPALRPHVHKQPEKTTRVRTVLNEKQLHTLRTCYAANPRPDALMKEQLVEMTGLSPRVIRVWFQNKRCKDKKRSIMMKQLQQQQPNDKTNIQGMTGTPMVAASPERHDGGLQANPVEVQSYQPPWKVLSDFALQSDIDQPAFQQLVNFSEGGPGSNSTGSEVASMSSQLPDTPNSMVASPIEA

B1: Gata3-P1 number 1 wild type (dsDNA)
DNA 1: GTCCTCTTTCCCAATTACCCACTGTCAGTC
DNA 2: GACTGACAGTGGGTAATTGGGAAAGAGGAC
B2: Gata3-P1 number 3 wild type (dsDNA)
DNA 1: CCTGGAGGGGCCTATTAGATATTTTGTTTT
DNA 2: AAAACAAAATATCTAATAGGCCCCTCCAGG
B3: Gata3-P1 number 1 mutant (dsDNA)
DNA 1: GTCCTCTTTCCCACGGCCCCACTGTCAGTC
DNA 2: GACTGACAGTGGGGCCGTGGGAAAGAGGAC
B4: Gata3-P1 number 3 mutant (dsDNA)
DNA 1: CCTGGAGGGGCCTCGGCGATATTTTGTTTT
DNA 2: AAAACAAAATATCGCCGAGGCCCCTCCAGG

What was measured:
[1] = molecular target: T1, Isl1 C-terminal fragment (LIM domains …); test: EMSA; self-competed by 100x unlabeled; blocked by Isl1 antibody 40.2D6; 40 mM KCl, 15 mM HEPES pH 7.9, 1 mM EDTA, 0.5 mM DTT, 5% glycerol, 50 ng/ul poly(dI-dC), 2 nM probe, 20 ul, room temperature 20 min; 6% native PAGE in 0.5x TBE; details: protein: ivt; label: 5'-biotin (probe); blunt
[2] = molecular target: T1, Isl1 C-terminal fragment (LIM domains …); test: competition; 100x unlabeled mutant vs site 1 probe; 40 mM KCl, 15 mM HEPES pH 7.9, 1 mM EDTA, 0.5 mM DTT, 5% glycerol, 50 ng/ul poly(dI-dC), 2 nM probe, 20 ul, room temperature 20 min; 6% native PAGE in 0.5x TBE; details: protein: ivt; blunt
[3] = molecular target: T1, Isl1 C-terminal fragment (LIM domains …); test: competition; 100x unlabeled mutant vs site 3 probe; 40 mM KCl, 15 mM HEPES pH 7.9, 1 mM EDTA, 0.5 mM DTT, 5% glycerol, 50 ng/ul poly(dI-dC), 2 nM probe, 20 ul, room temperature 20 min; 6% native PAGE in 0.5x TBE; details: protein: ivt; blunt

Row | Binder | binding result [1] | further results
1 | B1 | binds | 
2 | B2 | binds | 
3 | B3 |  | binding result [2]: no binding
4 | B4 |  | binding result [3]: no binding
